A short description of the data set: soluble on expression in E. coli; label from the status in PepcDB or PDB records.
For “MSLLLIVAGHDPTGAGLRADIATAEALGVPAVSLPTLLSLQDEGVELVEPVDSRFMSDCLARYVPRCEVVKVGAVPTLKTFEILAKRLRDLTVVWDPVFRAEAGGELSEATPEEALETFGETVDILTPNTEELSQLVGREVRTTVEAELAARELVEEYGLTGVLVTGGHSVDRRDVWVPAEGNTIAWEVPPGEGAHGSGCVLSTALACFLVRGLDPETAVERAVRFARAAVREARNTPFGRVADPVAQIRRDATLGKATQHVIRALEIIESDPAFARAIPQVGMNVAEVFDPSRGLEGVVGLSGRIVLDGDRPTAVGRPVPGGSKHVGTVALTAHRLDPSVRAAVNARYDEELIERARDLGFVVSSFDRSEEPEEVDSTMEWGTEVAFRRADDTPDVVYDEGDVGKEPMIRVLGKSAVEAVTKLRMLLGCVVGEGHHHHHH”, the “soluble on expression in E. coli” value is given as “soluble”. With “MSLLRAIIVDNEEPATQILQMLLEKTGQIRVVGTFLRAADALSSLRLTKPDVAFLDIEIPDTSGLELANHILAMDSDVEIIFVTAYDHYALHAFRVNALDYLLKPLLPEDVERAVRRLIKRKGLAKDSAPESPLGANIHYFGKFSVYGPASKKPVKWRTSKAEELFAYLVQNLEKEVPKWRICEALWPEYHSEKVDIQLHTTVYKLKKVLTAANIPFDLSFSNGCYWLSLPQAAIDKVEFDAHIASSVPVNQSTIARCEHALSLYTGDYLEENGYLWSLALKAEYGQKFYKLASSVVNFYMTQGDWVRAEKILRSILERCPLDETVHEMLLTCYFTQKDRTAFITHYHTVRKLFQAELGLEPGKSIQTLYHSLLKRMDEGHHHHHH” the entry was “soluble”; with “MSLLVIVKVQQAKNPLERAFFYAVSPEDYYEQAERLLKEGVIDEEGLKKARIEEYVLGARFNANFHSYALKDVFGNFDFVGFSDRRQVNLQGFLNLPAKDQLKINVPVKNEEIGHFGVTMRESKQQEVYEAAEKFIEACKAEFPPGIIGMFGLQGAMAYSPEDETKLEFVIFDVSFRVPGDPAIGPTSPEMRNLTLKHGVKIEDPLDLTMMEIKKAMELKRMEEIVTEGHHHHHH”, “soluble”. With “MSLMTDDIDQRLINALMADSRLSLKALAQVSGLSAPSVAERLRKLEERGVIRGYTLDVDPRCFGYQFQAIVRIRPLPGRLHEVERQIQDIAEFTECDKVTGDDCFIARLQVRSMEQLDTLLDRINGYAETNTAIVKKSPVKRRLPPMT” the entry was “soluble”; with “MSLNAPKLVIGANGFLGSHVTRQLVADCAPQKGEVRAMVRPAANTRSIDDLPLTRFHGDVFDTATVAEAMAGCDDVYYCVVDTRAWLRDPSPLFRTNVAGLRNVLDVATDASLRRFVFTSSYATVGRRRGHVATEEDRVDTRKVTPYVRSRVAAEDLVLQYAHDAGLPAVAMCVSTTYGGGDWGRTPHGAFIAGAVFGRLPFTMRGIRLEAVGVDDAARALILAAERGRNGERYLISERMMPLQEVVRIAADEAGVPPPRWSISVPVLYALGALGSLRARLTGKDTELSLASVRMMRSEADVDHGKAVRELGWQPRPVEESIREAARFWAAMRTVGKDPAASEGHHHHHH”, “not soluble”; with “MSLNARSYLEQQLTGQNANAANALALAITQSQADKAMAETLINATFDQGYFHHIRWQGADGKVRVDRVNEAVFPAAPGWFRALLPLSPQPGSALVTAGWMQAGEIRVEAALGYAYESLWRGALQTMLWLLGTGLLAGLLGSIDIFKLRRDLQRVVNQARAISEHRFQRMTEPKVPELARVVGAMNQMVERLQSFLGEQSEEVEQLRRERHTDPVTGLPNREALEQAVSSTLAEEDDVRGCLLLLRLAGLAELNQRLGGERADALLVRLAADLEDLAARRKGWMAARLRGADFAVFCPELDMDGGRQLAETLCEQLALYRQMGLSDRDGIGHIGVCGIVQGDGLASLLARASQALAEAEAAGDNQWRVDDGAGPDVGSEWDWRELIEAACREHSEGHHHHHH”, “soluble”. With “MSLNCKQRRYMKILIVDDNEQYRKLLSAIFVDRGWEAIDAPEGNKGMELLREHIPDVILSDIMMPRMDGFQFLRALRTSAFGDIIFIFYTSTYTKASHRDFALSLGADAYIAKPLDPEDIVQALMDILDRKELREGHHHHHH” the entry was “not soluble”; with “MSLNDLLTRRAVVAGMGVLGLGLLAGCSPARGLEFKYGKNMSNEILGRKFSLKDPQGNVRTLSSFYGSMPMVFFGFTQCPAVCPTTLARAAQIRKLLRGRDRDLFQVVFITLDPERDTPEVLDAYVKAFDPTFTALTGTPEEIAAVAKEFKVFYEKVPAGDTYTISHSSTSYVYDTRGTLRLSLGHSLNAKECAEDLVTLMEIEGHHHHHH”, “soluble”; with “MSLNELDCLETASIKIDPFTLELSRSLSTAVGDIEQRRGHVVCVDINGTVGIGEATPLPGWTERYPDCQDALRSVSTDSTSTSTSTSTSTSASEITPDTRSAAHHGIELACVDAMARHHDSSLARFLSTDTPATSIPVNATIGDCDSEQTYKKAESAVEDGYTTIKLKVGARDIESDCNRVIAARSAVGEDITLRVDANGAWNRTAAERFLETARTVDIAYIEQPLPASDLDGHALLRGRGVDIAVDESMNRTSPEQIFAADAADIIVCKPMALGGPKQTLAVARKAEAVDIDTVVTTTIDGVIARMGAVHIAAALPGSGSNARACGLATGSMLADDLTANPVSISDGEISVPTGPGLAGGALRSCCNREGHHHHHH”, “soluble”. With “MSLNEQAPVIAVLLTERTRRMMLDDAAIAQLNALGEVRWPTGAAIDATDVDQLLHGAVACLTGWGTPPFDPAARQRHPQLALVAHSAGSVRTLVPARLFDDGIRVTHAASKIAASVAEFVVAEALLAMRGIHRLHHQLRNGGEWLDVRAAVPQKLLGSRTVGIVGAGYVGRAVMRLLVPFGCRVLVVDPFLHDSEAAALGVFRAGLNDMLAQADMVSLHAPVLPETRRMIGARELALLRPGTLFINTARAELVDEAALLAEIRSGRIEAALDVFDNEPLPQDSPFRDPALANVTISPHAAGHTNEAHLAQGQAMVDEIGRLLRREPLQHEVSREGHHHHHH”, the “soluble on expression in E. coli” value is on record as “not soluble”. Under “MSLNFTALDFETANTHKTSICAVGMAIVEDGKVVKTISKLIKPVPDFYSYWNVQIHGITPDMTADAPYFIDVWQELKQYIDYSTLVAHNAAFDVGALRSILTTHEVSFPKTDYFCSCSVSRKVFKEIENHKLSTVCRHIDVPLNHHEAESDAIGAAQIIIKAGERLGANSIEELMAMLKMKLKVEGHHHHHH” stands “not soluble”; under “MSLNKGSERTFNDLVEFIGEEMDFESGFYNDSYLDRRITARMRRTDTEDYQTYQRLLERDNGEREELLDSLSINVTSFFRNPEAWERLRPVLRELTENNRRVRLWSAPSADGREPYSAAMLALDDPEIDARRVEITATDINADILEEARKGTYATSQTTDIADELEPLDDYTKYIEQDGDTFQVRDQVKEMVTFEQHDLIRGDPKRDFDLVFCRNLLIYIDSEFKVPIFETIRGSLREGGYLMIGMTETLPAECRDSFEAVDKRHRIYRREGHHHHHH”, “not soluble”; under “MSLNKVWLTGLLTATASGVFSASTLAATEITWWHAMGGQLGEMVNQLATDFNASQSDYKLTPVYKGSYTETLTTGIAAFRAGQAPNILQVFDAGAATIMSSKGVAKPVQDLMIESGYPFTAQDYIAGVRNFYADNTGKMVGMPFNSSTPVLYYNKDMLASVNAQAPQTYEQLEQVAAKLAEKGQAGFAQSLAPWIMFENFKSRHNLPLSDKQNGYQDLSTKIMFNSDDMLMHVKKLKEWSDKGYYKYYGSDWDANQTPFERGEVAMWMGSSGSFGGLRNRVKFNLGTTYLPYWESVTKNPTHTFIGGAALFALQGHTPAQDKGVAAFFAYLTKPETQMNWHKTTGYVPVTNAAYDLTKQSGYYQENPDAEVGVKQLSLPDGEWTKGYRLGYYPQVREVMHREFDNIFSGRSTVESSLNKVEDESAKLLNRFARTVQEGGSHHHHHH”, “soluble”. With “MSLNLPFRAMVSDLDGTLLTPEHLVGDLTIDTLRALEQKGVDIILATGRNHTDVSSILGKIGAERAVMITSNGARVRDLQGNLLYSNSLPEELVLELYKTPFDTSKVCMNSYQDEGWFTNKDIPAMRQFHKESGFDYNVVDFSKHHGRGTEKVFFIGKTPEDLVEVETYLRDKFGDVTTIVYSALACLEVMNKNVSKGDALKHLLESREYELKDCIAFGDGMNDVEMLSWAGKGCIMKDADIRLKMACPELEVIGSNKEESVARYLRTQFGLDYEGHHHHHH” the entry was “soluble”. With “MSLNNKVIKKEVEEYLSRYFEGKDNYNKRVYESMNYSLNAGGKRVRPLLLLASYAIYNKDYKEVIDIAAAIEMIHTYSLIHDDLPCMDNDDLRRGRPTNHKIFGYSIALLAGDGLLNEAMNIMFKYCIGKGEEALKACLMISKAASSDGMIGGQVVDILSEGKKINEDELRYMHKKKTGELIKAAVVSGAILGGAPLHDVELLSQYGDKLGLAFQIEDDILDIIGDTKIMGKTSKSDLENDKCTYVTLYGIDKCKSICRELTDECLDIIGKIQGNTELLKEITELLLKRNREGHHHHHH” the entry was “soluble”. As to “MSLNPSKKKNNFNMQDPFAWQKINKQIRDANASQLDVLAKEFDTQETLPIYAYILERKNNFKKHYFIMPYYDNIKDYNKTRQALILAIARQESRFIPTAISVSYALGMMQFMPFLANHIGEKELKIPNFDQDFMFKPEIAYYFGNYHLNYLESRLKSPLFVAYAYNGGIGFTNRMLARNDMFKTGKFEPFLSMELVPYQESRIYGKKVLANYIVYRHLLNDSIKISDIFENLIQNKANDLNKEGHHHHHH”, the “soluble on expression in E. coli” value is on record as “not soluble”.

In the case of “MSLNQGEQLPGNYRVEIYLNGEKVDVGEFPFHRPESPEEKELVPCLTVDDLIHYGIKIDKSSSDTDNKKNQCFKWNSIEGLKVNYDFDSQRVQITVPQLYLQDKKSSLAPVSLWNEGVAAFRMVYQTNIDISKQNDNQSTTRNSRYGRFTPGFNLGAWRFRSSVTWSKELGQSERWQRGYMWFERGINAIKSRLTLGESYTSSEVFDSIPFRGGMLATDDAMTPPEDSYYTPVVHGIAQSEAQVIIKQNGQIIFTRSVPPGPFALDNLPTLAVGGELDVTVRESNGEEQYFSVPFQTPAIALHEGYFKYSVMGGNIKKKEGHHHHHH”, the “soluble on expression in E. coli” value was “not soluble”.

“MSLNQLTDHVTLRHGATLNNRIVMSPMQTHSGLKGGFASDDTIQYYSARSRAAGMLITEFHYVSENGGPAYVPGYPEQLGAYSDAHLEGLRKTVQALKKDGNKAILQIHHAGRAAVGRHVNGLDVVAPSAIDFSFLDYPVRELTITEIDDIILDFGKATKRAIDAGFDGVEIHGANHYLIQQFFSKLSNLRTDKWGGSLNKRMAFPLAVVKEVKAIVDEYAPKGFIIGYRISPEELHGKNVGYDYTEALTLISEVIKYELDYIHLSLWAGYNSKPENSEKSYAELFKEILDDKTKLLIVGGIFGEDTATDAIENYADLIAVARGTLIDPNFAKKVTEGKGDTILHKISPETVEYSHLTPGLLEAFSREDSLGLPPLPGGETIRHLHTGKYDEGHHHHHH”: the “soluble on expression in E. coli” value is “soluble”. Under “MSLNRDKPLKVMLVAAEASGDALGAGLAKALRARLGQGVTFVGIGGAKMAEQGVQSPFDIAQLSILGILESLKAYPRAMARLKDTVALAAREKPDVAVLIDSWGFNIRLAHALRRLDPTLPLVKYVAPQVWAYREGRAQALAKAVDLLLSIQPMDKAYFDAAGLQNVFVGNSALAKRFDHADPGRLRAAIGAAASQQILLVLPGSRPSEIERVMPAFEDAVRRLKVERPDLHIVVPAAYTVAEAVKARVAGWPFRAHVIEDEGLKDDAFLAGDVALACSGTVTTELALAGRPMVVGYKTGAVTYAIVKRLMKPRWITLFNIAAGKAVAPELIQHACEGEGLAREVALRLDDPDLRQRQTAEQYAALDRMGRGMPDPSEAAAEALLDFLSARGALGREGHHHHHH” stands “not soluble”. Under “MSLNREFDVTAPNQVWCGDITYIWAQGKWHYLAVVMDLYARRVLGWAFSKKSDTDLVIKALDMAYEQRGKPQGLLFHSDQGAQYGSRQFRKRLWRYRVRQSMSRRGNCYDNSPMARVFRSLKTEWIPAVGYMTAQEAQGDISHYLMHRYNRVRPHQFNDGLAPAQYEKTLTSEGHHHHHH” stands “not soluble”.

The values above are taken from the DeepSol protein solubility set.
